Key:
fibronectin = fibronectin (UniProt P02751); test: SPR; plasminogen or fibronectin immobilised on CM5 chips by amine coupling (600 RU); recombinant enolase proteins 0-4000 nM injected at 30 uL/min for 180 s, 20 °C, dissociation 1000 s; 10 mM HEPES, 150 mM NaCl, 3 mM EDTA, 0.05% surfactant P20; Biacore X100
[1] = target: Recombinant M. hyorhinis enolase K451L (Mycoplasma hyorhinis (strain HUB-1)) (UniProt P0DXB0)
[2] = target: Recombinant M. hyorhinis enolase K452L (Mycoplasma hyorhinis (strain HUB-1)) (UniProt P0DXB0)
[3] = target: Recombinant M. hyorhinis enolase K451L-K452L (Mycoplasma hyorhinis (strain HUB-1)) (UniProt P0DXB0)
plasminogen = test: SPR; plasminogen or fibronectin immobilised on CM5 chips by amine coupling (600 RU); recombinant enolase proteins 0-4000 nM injected at 30 uL/min for 180 s, 20 °C, dissociation 1000 s; 10 mM HEPES, 150 mM NaCl, 3 mM EDTA, 0.05% surfactant P20; Biacore X100

fibronectin, sequence (P02751 32-2477): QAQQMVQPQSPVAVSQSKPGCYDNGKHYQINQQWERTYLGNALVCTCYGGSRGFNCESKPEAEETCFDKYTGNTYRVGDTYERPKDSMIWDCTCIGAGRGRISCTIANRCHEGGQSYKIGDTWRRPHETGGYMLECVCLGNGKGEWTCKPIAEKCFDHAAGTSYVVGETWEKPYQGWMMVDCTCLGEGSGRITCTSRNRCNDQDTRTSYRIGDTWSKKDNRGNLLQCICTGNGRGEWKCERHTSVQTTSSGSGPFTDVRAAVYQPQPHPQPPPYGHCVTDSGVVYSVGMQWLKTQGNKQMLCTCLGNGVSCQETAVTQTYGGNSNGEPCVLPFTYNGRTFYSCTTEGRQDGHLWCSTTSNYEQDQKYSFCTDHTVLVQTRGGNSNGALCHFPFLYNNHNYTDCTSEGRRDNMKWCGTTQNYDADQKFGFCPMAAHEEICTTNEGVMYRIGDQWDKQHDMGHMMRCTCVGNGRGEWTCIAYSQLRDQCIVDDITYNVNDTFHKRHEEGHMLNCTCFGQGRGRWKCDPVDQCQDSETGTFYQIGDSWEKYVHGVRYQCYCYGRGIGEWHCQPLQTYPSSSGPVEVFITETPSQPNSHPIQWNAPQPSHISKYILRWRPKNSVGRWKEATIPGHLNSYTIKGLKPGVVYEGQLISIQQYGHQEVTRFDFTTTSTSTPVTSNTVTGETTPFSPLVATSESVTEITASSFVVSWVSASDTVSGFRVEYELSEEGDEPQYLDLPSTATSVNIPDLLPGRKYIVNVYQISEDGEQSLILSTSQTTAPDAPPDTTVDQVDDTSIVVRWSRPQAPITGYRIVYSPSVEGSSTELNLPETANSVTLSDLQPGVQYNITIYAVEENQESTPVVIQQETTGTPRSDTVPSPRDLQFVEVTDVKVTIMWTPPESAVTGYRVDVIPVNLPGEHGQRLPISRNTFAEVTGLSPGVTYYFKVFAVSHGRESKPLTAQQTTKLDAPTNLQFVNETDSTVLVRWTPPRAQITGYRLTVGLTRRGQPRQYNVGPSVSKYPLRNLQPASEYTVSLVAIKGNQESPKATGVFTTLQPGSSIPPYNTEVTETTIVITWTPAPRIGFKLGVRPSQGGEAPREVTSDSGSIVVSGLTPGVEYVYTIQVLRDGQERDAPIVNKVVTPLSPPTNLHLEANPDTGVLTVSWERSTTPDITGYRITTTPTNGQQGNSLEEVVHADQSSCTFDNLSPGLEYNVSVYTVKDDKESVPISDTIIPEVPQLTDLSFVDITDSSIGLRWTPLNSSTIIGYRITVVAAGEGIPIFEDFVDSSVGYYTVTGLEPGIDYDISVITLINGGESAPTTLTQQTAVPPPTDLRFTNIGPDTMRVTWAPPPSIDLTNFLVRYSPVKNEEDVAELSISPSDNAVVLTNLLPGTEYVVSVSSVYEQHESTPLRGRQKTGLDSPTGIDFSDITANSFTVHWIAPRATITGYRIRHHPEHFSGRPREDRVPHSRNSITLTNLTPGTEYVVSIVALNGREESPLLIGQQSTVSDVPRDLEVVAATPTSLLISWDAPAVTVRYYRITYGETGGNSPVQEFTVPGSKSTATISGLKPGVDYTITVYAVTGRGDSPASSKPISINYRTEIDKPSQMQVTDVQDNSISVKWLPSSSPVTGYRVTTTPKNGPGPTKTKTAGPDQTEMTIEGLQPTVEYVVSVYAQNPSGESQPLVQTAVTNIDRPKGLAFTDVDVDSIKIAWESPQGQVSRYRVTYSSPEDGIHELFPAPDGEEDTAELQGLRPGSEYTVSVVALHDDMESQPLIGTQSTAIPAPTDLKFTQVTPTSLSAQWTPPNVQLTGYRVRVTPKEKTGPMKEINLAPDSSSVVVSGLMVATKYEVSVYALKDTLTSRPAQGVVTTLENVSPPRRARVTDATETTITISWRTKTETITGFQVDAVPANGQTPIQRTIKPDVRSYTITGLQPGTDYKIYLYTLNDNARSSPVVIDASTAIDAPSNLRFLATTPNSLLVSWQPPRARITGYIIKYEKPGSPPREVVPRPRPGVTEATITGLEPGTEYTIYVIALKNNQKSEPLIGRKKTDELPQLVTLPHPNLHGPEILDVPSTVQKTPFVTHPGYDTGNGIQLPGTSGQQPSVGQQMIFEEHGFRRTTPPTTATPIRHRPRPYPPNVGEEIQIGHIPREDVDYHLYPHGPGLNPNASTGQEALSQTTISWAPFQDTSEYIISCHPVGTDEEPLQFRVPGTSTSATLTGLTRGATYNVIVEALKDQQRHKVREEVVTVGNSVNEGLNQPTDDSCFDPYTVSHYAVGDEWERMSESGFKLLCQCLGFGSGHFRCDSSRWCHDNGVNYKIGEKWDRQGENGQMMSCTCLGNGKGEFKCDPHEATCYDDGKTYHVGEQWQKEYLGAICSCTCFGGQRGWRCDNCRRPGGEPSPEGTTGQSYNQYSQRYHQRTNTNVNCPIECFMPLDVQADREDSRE

Work on “Recombinant M. hyorhinis enolase, wild-type (from UniProt P0DXB0 1-450) (enzyme; other documents disagree on this pair)” yielded a Kd (fibronectin) of 14.3 nM.

plasminogen (natural protein) gave a plasmin activity (OD 405 nm) of plasminogen held in wells coated with the mutant, after tPA, compared with WT rEno-bound plasminogen (printed percent, seemingly the decrease) [1] of 39.5%, a plasmin activity (OD 405 nm) of plasminogen held in wells coated with the mutant, after tPA, compared with WT rEno-bound plasminogen (printed percent, seemingly the decrease) [2] of 30.5% and a plasmin activity (OD 405 nm) of plasminogen held in wells coated with the mutant, after tPA, compared with WT rEno-bound plasminogen (printed percent, seemingly the decrease) [3] of 50.1%.

With “Recombinant M. hyorhinis enolase K452L (from UniProt P0DXB0 1-450) (enzyme)” the Kd (fibronectin) was 70.5 nM and the Kd (plasminogen) was 15.8 nM.

“Recombinant M. hyorhinis enolase K451L-K452L (from UniProt P0DXB0 1-450) (enzyme)” showed a Kd (fibronectin) of 75.2 nM and a Kd (plasminogen) of 59.4 nM.

Substance “Recombinant M. hyorhinis enolase K451L (from UniProt P0DXB0 1-450) (enzyme)” has a Kd (fibronectin) of 77.9 nM and a Kd (plasminogen) of 28 nM.
